The RNAGym collection of RNA variant scans (doi:10.7554/elife.80360)

B1: CPEB3 Ribozyme (parent)
chain: GGGGGCCACAGCAGAAGCGUUCACGUCGCGGCCCCUGUCAGAUUCUGGUGAAUCUGCGAAUUCUGCUGU

Variants of: B1
Experiment: self-cleavage, relative activity (ratio to wild type); higher = more cleavage; co-transcriptional
For U53A U64A, the self-cleavage was 0.822.
Work on U53A U64G yielded a self-cleavage of 0.626.
Variant U53A U64C has a self-cleavage of 0.693.
For A52U G58U, the self-cleavage was 0.992.
In the case of A52U G58C, the self-cleavage is reported as 0.954.
A52U U64C showed a self-cleavage of 0.741.
With A52U U64G the self-cleavage was 0.666.
A52C U69G gave a self-cleavage of 1.05.
With A52C U69C the self-cleavage was 1.05.
U53C A60U showed a self-cleavage of 0.397.
Variant U53C A60G has a self-cleavage of 0.711.
With U53C A60C the self-cleavage was 0.31.
A52G U55A gave a self-cleavage of 0.914.
A52G U55G gave a self-cleavage of 0.729.
A52U A60C gave a self-cleavage of 0.47.
A52U A60U gave a self-cleavage of 0.486.
A52U A60G gave a self-cleavage of 0.808.
Work on A52U yielded a self-cleavage of 0.99.
With A52G the self-cleavage was 0.995.
Work on A52C yielded a self-cleavage of 0.993.
U53A U67A showed a self-cleavage of 0.834.
U53A U67G showed a self-cleavage of 0.938.
For A51U U62C, the self-cleavage was 0.892.
Variant A51U U62A has a self-cleavage of 0.931.
With A51U U62G the self-cleavage was 0.868.
In the case of A52U U55C, the self-cleavage is reported as 0.63.
A52C C63G showed a self-cleavage of 0.688.
A52C C63U showed a self-cleavage of 0.973.
Work on A52C U53A yielded a self-cleavage of 0.936.
A52C U53C showed a self-cleavage of 0.806.
U53A C66G gave a self-cleavage of 0.624.
For U53A C66U, the self-cleavage was 0.911.
In the case of U53A U61C, the self-cleavage is reported as 0.583.
With U53A U61A the self-cleavage was 0.694.
For A52G U69A, the self-cleavage was 0.985.
A52G U69C showed a self-cleavage of 1.06.
With A52G U69G the self-cleavage was 1.07.
In the case of A52U G68U, the self-cleavage is reported as 0.992.
A52U G68C gave a self-cleavage of 0.98.
For A52C A60U, the self-cleavage was 0.476.
In the case of A52C C57G, the self-cleavage is reported as 0.26.
Work on A52G G65A yielded a self-cleavage of 0.945.
In the case of A52C C54A, the self-cleavage is reported as 0.615.
A52C C54U gave a self-cleavage of 0.856.
With A52C C54G the self-cleavage was 0.562.
A52G A60C showed a self-cleavage of 0.336.
In the case of A52G A60G, the self-cleavage is reported as 0.922.
In the case of A52U U69C, the self-cleavage is reported as 1.05.
With A52U U69G the self-cleavage was 1.04.
In the case of A52C U55C, the self-cleavage is reported as 0.686.
With A52C U55A the self-cleavage was 0.631.
With A52C U55G the self-cleavage was 0.56.
For A52C G68U, the self-cleavage was 0.979.
In the case of A52G C54A, the self-cleavage is reported as 0.931.
With A52G C54U the self-cleavage was 1.02.
A52C U67A showed a self-cleavage of 0.963.
U53C C57U showed a self-cleavage of 0.43.
Work on U53C C57A yielded a self-cleavage of 0.346.
Variant U53C C57G has a self-cleavage of 0.398.
A52C G58U gave a self-cleavage of 0.977.
With U53A G56U the self-cleavage was 0.583.
A52U C57U gave a self-cleavage of 0.309.
A52U C57G gave a self-cleavage of 0.334.
Variant A52U C57A has a self-cleavage of 0.453.
In the case of A52G U53A, the self-cleavage is reported as 0.917.
In the case of U53A C63U, the self-cleavage is reported as 0.909.
For U53A C63G, the self-cleavage was 0.709.
In the case of U53A U69G, the self-cleavage is reported as 1.05.
U53A U69A gave a self-cleavage of 1.01.
U53A G65U showed a self-cleavage of 0.587.
Work on U53A G65C yielded a self-cleavage of 0.552.
With U53A G65A the self-cleavage was 0.739.
For A52U U67C, the self-cleavage was 0.915.
A52U U67G showed a self-cleavage of 0.987.
For U53A C57U, the self-cleavage was 0.376.
With U53A C57G the self-cleavage was 0.345.
A52C A59C gave a self-cleavage of 0.527.
A52C A59G gave a self-cleavage of 0.985.
For A52G G56A, the self-cleavage was 0.983.
For A52G G56U, the self-cleavage was 0.97.
A52G G56C showed a self-cleavage of 0.819.
Work on A52C U62C yielded a self-cleavage of 0.811.
A52C U62A showed a self-cleavage of 0.882.
For A52U U53C, the self-cleavage was 0.879.
Work on A52U U53G yielded a self-cleavage of 0.871.
In the case of A52U U53A, the self-cleavage is reported as 0.981.
With A52G U61C the self-cleavage was 0.879.
Variant U53A U62A has a self-cleavage of 0.821.
Variant U53A U62G has a self-cleavage of 0.74.
Work on U53A U62C yielded a self-cleavage of 0.634.
For U53A G68C, the self-cleavage was 1.03.
For U53A G68A, the self-cleavage was 1.03.
Work on U53A G68U yielded a self-cleavage of 0.978.
A51U U61G gave a self-cleavage of 0.772.
In the case of A52U U61C, the self-cleavage is reported as 0.68.
For A52U U61A, the self-cleavage was 0.935.
U53C C66G gave a self-cleavage of 0.477.
Variant U53A has a self-cleavage of 0.973.
U53C showed a self-cleavage of 0.947.
With U53A G58U the self-cleavage was 0.944.
U53A G58C gave a self-cleavage of 0.917.
U53A G58A gave a self-cleavage of 0.919.
With A51U U64C the self-cleavage was 0.788.
In the case of A51U U64A, the self-cleavage is reported as 0.799.
For A51U U64G, the self-cleavage was 0.826.
With U53C C63G the self-cleavage was 0.451.
U53C C63A gave a self-cleavage of 0.402.
Variant A52G C57G has a self-cleavage of 0.23.
For A52G C57U, the self-cleavage was 0.407.
For A52U C54G, the self-cleavage was 0.835.
A52U C54A gave a self-cleavage of 0.907.
A52C G65C gave a self-cleavage of 0.582.
With A52C G65A the self-cleavage was 0.88.
For A52C G65U, the self-cleavage was 0.765.
Variant A52U C66U has a self-cleavage of 0.973.
In the case of A52U C66A, the self-cleavage is reported as 0.701.
Variant U53A C54G has a self-cleavage of 0.586.
Work on A52U C63A yielded a self-cleavage of 0.789.
Variant A52U C63G has a self-cleavage of 0.72.
A52U A59U showed a self-cleavage of 0.803.
With A52U A59G the self-cleavage was 0.972.
A52U A59C showed a self-cleavage of 0.716.
Variant A52U G65A has a self-cleavage of 0.783.
With A52C C66U the self-cleavage was 0.912.
For A52C C66A, the self-cleavage was 0.68.
For A52C C66G, the self-cleavage was 0.782.
A51U U67G showed a self-cleavage of 1.
Variant A51U U67A has a self-cleavage of 0.976.
In the case of A51U U67C, the self-cleavage is reported as 1.01.
Work on A52G C66U yielded a self-cleavage of 0.971.
Variant A52G C66A has a self-cleavage of 0.845.
With U53C A59G the self-cleavage was 0.944.
With U53C A59C the self-cleavage was 0.525.
In the case of U53C A59U, the self-cleavage is reported as 0.618.
In the case of A52C G56U, the self-cleavage is reported as 0.741.
For A52C G56C, the self-cleavage was 0.536.
A52C U61A gave a self-cleavage of 0.893.
Work on A52C U61G yielded a self-cleavage of 0.67.
A52C U61C gave a self-cleavage of 0.759.
U53A U55A showed a self-cleavage of 0.354.
Work on A52G U62A yielded a self-cleavage of 0.871.
A52G U62C gave a self-cleavage of 0.915.
A52G U62G gave a self-cleavage of 0.963.
In the case of A51U U69A, the self-cleavage is reported as 1.01.
Variant A51U U69G has a self-cleavage of 1.06.
With A51U U69C the self-cleavage was 1.07.
A52U G56C showed a self-cleavage of 0.456.
Variant A52G G68C has a self-cleavage of 0.975.
Work on A52G G68A yielded a self-cleavage of 1.01.
U53C C54G gave a self-cleavage of 0.424.
U53C C54A gave a self-cleavage of 0.506.
A52G U64A gave a self-cleavage of 0.911.
In the case of A52G U64G, the self-cleavage is reported as 0.957.
A52G U64C gave a self-cleavage of 0.912.
With A52C U64C the self-cleavage was 0.842.
Variant A52C U64G has a self-cleavage of 0.829.
For A52U U62A, the self-cleavage was 0.829.
Work on A52U U62G yielded a self-cleavage of 0.82.
A52G C63U showed a self-cleavage of 1.
Variant A52G C63G has a self-cleavage of 0.865.
Variant A52G C63A has a self-cleavage of 0.907.
Work on U53A A59G yielded a self-cleavage of 0.98.
For U53A A59C, the self-cleavage was 0.571.
Work on U53A A59U yielded a self-cleavage of 0.646.
For A52G U67A, the self-cleavage was 1.
With A52G G58A the self-cleavage was 0.926.
A52G G58U showed a self-cleavage of 1.
